Experimental data from the supplement of paper PMC10567573.

B1: HNF4A (parent)
chain: RFSRQCVVDKDKRNQCRYCRLKKC
B2: C10orf62 (parent)
chain: MLWVQRKRRRKETSECPSDKDKSP

Variants of: B1
Test: protein stability index of a GFP-peptide fusion (GPS, HEK-293T) (PSI 1-6); higher = more stable
Settings: c terminus: a fixed tail appended
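Also: lentivirally expressed fusions sorted by FACS into six bins by GFP to DsRed ratio, PSI derived from sequencing read proportions per bin multiplied by bin number.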

First: RFSRQCVVDKDKRNQCRYCNLKKC [R20N]
Second: RFSRQCVVDKDKRNQCRYCKLKKC [R20K]
The protein stability index of the first is higher: 2.62 for the first, 2.58 for the second.

Compared with RFSRQCVVDKDKRNQCRYCLLKKC [R20L], RFSRQCVVDKDKRNQCRFCRLKKC [Y18F] is higher in protein stability index: 2.35 for the first, 2.63 for the second.

Going from RFSRQCVVDKDKRNQCRHCRLKKC [Y18H] to RFSRQCVVDKDKRNQCRGCRLKKC [Y18G], the protein stability index falls from 3.64 to 3.04.

Going from RFSRQCVVDKDKRNQCRICRLKKC [Y18I] to RFSRQCVVDKDKRNQCRCCRLKKC [Y18C], the protein stability index rises from 3.54 to 3.61.

Going from RFSRQCVVDKDKRNQCRPCRLKKC [Y18P] to RFSRQCVVDKDKRNQCRACRLKKC [Y18A], the protein stability index falls from 3 to 2.2.

First: RFSRQCVVDKDKRNQCRMCRLKKC [Y18M]
Second: RFSRQCVVDKDKRNQCRNCRLKKC [Y18N]
The protein stability index of the first is lower: 3.13 for the first, 3.78 for the second.

Going from RFSRQCVVDKDKRNQCRRCRLKKC [Y18R] to RFSRQCVVDKDKRNQCRKCRLKKC [Y18K], the protein stability index rises from 3.36 to 3.73.

First: RFSRQCVVDKDKRNQCRLCRLKKC [Y18L]
Second: RFSRQCVVDKDKRNQCRECRLKKC [Y18E]
The protein stability index of the first is lower: 2.19 for the first, 3.41 for the second.

Going from RFSRQCVVDKDKRNQCRQCRLKKC [Y18Q] to RFSRQCVVDKDKRNQCRSCRLKKC [Y18S], the protein stability index rises from 3.54 to 3.69.

First: RFSRQCVVDKDKRNQCRTCRLKKC [Y18T]
Second: RFSRQCVVDKDKRNQCRYCRLKLC [K23L]
The protein stability index of the first is higher: 3.2 for the first, 1.34 for the second.

First: RFSRQCVVDKDKRNQCRYCRLKGC [K23G]
Second: RFSRQCVVDKDKRNQCRYCRLKWC [K23W]
The protein stability index of the first is higher: 2.15 for the first, 2.05 for the second.

Compared with RFSRQCVVDKDKRNQCRYCRLKMC [K23M], RFSRQCVVDKDKRNQCRYCRLKPC [K23P] is lower in protein stability index: 3.12 for the first, 1.74 for the second.

Compared with RFSRQCVVDKDKRNQCRYCRLKYC [K23Y], RFSRQCVVDKDKRNQCRYCRLKCC [K23C] is higher in protein stability index: 2.24 for the first, 2.54 for the second.

Going from RFSRQCVVDKDKRNQCRYCRLKVC [K23V] to RFSRQCVVDKDKRNQCRYCRLKAC [K23A], the protein stability index falls from 2.04 to 1.89.

Going from RFSRQCVVDKDKRNQCRYCRLKHC [K23H] to RFSRQCVVDKDKRNQCRYCRLKTC [K23T], the protein stability index falls from 2.4 to 2.37.

First: RFSRQCVVDKDKRNQCRYCRLKIC [K23I]
Second: RFSRQCVVDKDKRNQCRYCRLKNC [K23N]
The protein stability index of the first is lower: 1.68 for the first, 1.77 for the second.

Compared with RFSRQCVVDKDKRNQCRYCRLKEC [K23E], RFSRQCVVDKDKRNQCRYCRLKDC [K23D] is lower in protein stability index: 2.04 for the first, 1.65 for the second.

First: RFSRQCVVDKDKRNQCRYCRLKQC [K23Q]
Second: RFSRQCVVDKDKRNQCRYCRLKSC [K23S]
The protein stability index of the first is higher: 2.74 for the first, 1.41 for the second.

Compared with RFSRQCVVDKDKRNQCRYCRLKFC [K23F], RFSRQCVVDKDKRNQCRYCRQKKC [L21Q] is higher in protein stability index: 2.67 for the first, 3.64 for the second.

Compared with RFSRQCVVDKDKRNQCRYCREKKC [L21E], RFSRQCVVDKDKRNQCRYCRGKKC [L21G] is lower in protein stability index: 3.08 for the first, 2.94 for the second.

Going from RFSRQCVVDKDKRNQCRYCRRKKC [L21R] to RFSRQCVVDKDKRNQCRYCRPKKC [L21P], the protein stability index falls from 4.08 to 2.94.

Going from RFSRQCVVDKDKRNQCRYCRHKKC [L21H] to RFSRQCVVDKDKRNQCRYCRKKKC [L21K], the protein stability index rises from 3.41 to 4.07.

First: RFSRQCVVDKDKRNQCRYCRYKKC [L21Y]
Second: RFSRQCVVDKDKRNQCRYCRTKKC [L21T]
The protein stability index of the first is higher: 3.01 for the first, 2.93 for the second.

Going from RFSRQCVVDKDKRNQCRYCRVKKC [L21V] to RFSRQCVVDKDKRNQCRYCRFKKC [L21F], the protein stability index rises from 2.31 to 2.86.

Going from RFSRQCVVDKDKRNQCRYCRNKKC [L21N] to RFSRQCVVDKDKRNQCRYCRMKKC [L21M], the protein stability index rises from 3.33 to 3.61.

Compared with RFSRQCVVDKDKRNQCRYCRWKKC [L21W], RFSRQCVVDKDKRNQCRYCRDKKC [L21D] is higher in protein stability index: 2.94 for the first, 3.35 for the second.

First: RFSRQCVVDKDKRNQCRYCRIKKC [L21I]
Second: RFSRQCVVDKDKRNQCRYCRCKKC [L21C]
The protein stability index of the first is lower: 3.22 for the first, 3.73 for the second.

Going from RFSRQCVVDKDKRNQCRYCRAKKC [L21A] to RFSRQCVVDKDKRNQCRYCRSKKC [L21S], the protein stability index falls from 3.51 to 3.36.

Variants of: B2
Test: as above
Settings: c terminus: a fixed tail appended

Going from MNWVQRKRRRKETSECPSDKDKSP [L2N] to MIWVQRKRRRKETSECPSDKDKSP [L2I], the protein stability index falls from 3.93 to 3.21.

Going from MDWVQRKRRRKETSECPSDKDKSP [L2D] to MTWVQRKRRRKETSECPSDKDKSP [L2T], the protein stability index falls from 4.88 to 3.31.

Going from MCWVQRKRRRKETSECPSDKDKSP [L2C] to MWWVQRKRRRKETSECPSDKDKSP [L2W], the protein stability index falls from 2.87 to 2.53.

First: MVWVQRKRRRKETSECPSDKDKSP [L2V]
Second: MPWVQRKRRRKETSECPSDKDKSP [L2P]
The protein stability index of the first is lower: 2.6 for the first, 4.59 for the second.

Compared with MEWVQRKRRRKETSECPSDKDKSP [L2E], MFWVQRKRRRKETSECPSDKDKSP [L2F] is lower in protein stability index: 4 for the first, 1.33 for the second.

Going from MMWVQRKRRRKETSECPSDKDKSP [L2M] to MHWVQRKRRRKETSECPSDKDKSP [L2H], the protein stability index rises from 2.89 to 3.52.

First: MKWVQRKRRRKETSECPSDKDKSP [L2K]
Second: MAWVQRKRRRKETSECPSDKDKSP [L2A]
The protein stability index of the first is lower: 2.98 for the first, 3.92 for the second.

Going from MYWVQRKRRRKETSECPSDKDKSP [L2Y] to ILWVQRKRRRKETSECPSDKDKSP [M1I], the protein stability index falls from 2.41 to 1.24.

First: LLWVQRKRRRKETSECPSDKDKSP [M1L]
Second: ALWVQRKRRRKETSECPSDKDKSP [M1A]
The protein stability index of the first is lower: 2.3 for the first, 2.93 for the second.

First: GLWVQRKRRRKETSECPSDKDKSP [M1G]
Second: CLWVQRKRRRKETSECPSDKDKSP [M1C]
The protein stability index of the first is higher: 4 for the first, 3.06 for the second.

First: YLWVQRKRRRKETSECPSDKDKSP [M1Y]
Second: RLWVQRKRRRKETSECPSDKDKSP [M1R]
The protein stability index of the first is higher: 3.4 for the first, 2.59 for the second.

Compared with TLWVQRKRRRKETSECPSDKDKSP [M1T], FLWVQRKRRRKETSECPSDKDKSP [M1F] is lower in protein stability index: 3.65 for the first, 2.98 for the second.

Compared with KLWVQRKRRRKETSECPSDKDKSP [M1K], PLWVQRKRRRKETSECPSDKDKSP [M1P] is lower in protein stability index: 3.53 for the first, 2.83 for the second.

Compared with HLWVQRKRRRKETSECPSDKDKSP [M1H], NLWVQRKRRRKETSECPSDKDKSP [M1N] is higher in protein stability index: 3.73 for the first, 4.55 for the second.

Compared with WLWVQRKRRRKETSECPSDKDKSP [M1W], VLWVQRKRRRKETSECPSDKDKSP [M1V] is higher in protein stability index: 2.83 for the first, 3.29 for the second.

Going from MLFVQRKRRRKETSECPSDKDKSP [W3F] to MLLVQRKRRRKETSECPSDKDKSP [W3L], the protein stability index rises from 3.25 to 3.73.

Going from MLIVQRKRRRKETSECPSDKDKSP [W3I] to MLCVQRKRRRKETSECPSDKDKSP [W3C], the protein stability index rises from 3.25 to 4.07.

Going from MLKVQRKRRRKETSECPSDKDKSP [W3K] to MLDVQRKRRRKETSECPSDKDKSP [W3D], the protein stability index rises from 4.18 to 4.99.

Going from MLAVQRKRRRKETSECPSDKDKSP [W3A] to MLHVQRKRRRKETSECPSDKDKSP [W3H], the protein stability index rises from 4.3 to 4.31.
